According to US20210324359A1, “USE OF GRAM-NEGATIVE LYSIN-ANTIMICROBIAL PEPTIDE (AMP) POLYPEPTIDE CONSTRUCTS IN TREATING ENDOCARDITIS” (priority 2020, published 2021):

Tests used:
[1] = tested on: P. aeruginosa strain PA453; experiment: Time-kill assay of GN370 in animal blood (Table 34); assay type: cell-based, Pseudomonas aeruginosa; settings: for Log10 CFU/mL of P. aeruginosa: limit of detection 1.6
Text: The results are shown below in Table 34, wherein survival is reported as Log10 CFU/mL and wherein the limit of detection was 1.6 Log10 CFU/mL.

[2] = tested on: Pseudomonas aeruginosa biofilm; experiment: MBEC in CAA supplemented with […] human serum (Table 14); assay type: cell-based
Protocol: (§1) Biofilms are then washed and treated with e.g., a 2-fold dilution series of the lysin in TSBg at e.g., 37° C. for 24 hours. After treatment, wells are washed, air-dried at e.g., 37° C. and stained with e.g., 0.05% crystal violet for 10 minutes.
Materials and methods: MICs were determined by broth microdilution in media supplemented with human serum and pulmonary surfactant ([…]®; Myoderm Clinical Supplies). Minimal biofilm eradicating concentrations (MBECs) were determined using standard methods. […] Fluorescence microscopy was performed after LIVE/DEAD staining (ThermoFisher) and TEM was performed.

[3] = tested on: biofilms formed by P. aeruginosa strain ATCC 17646; settings: strain ATCC 17646 biofilm
Protocol: as §1

B1: GN370: lysin-AMP construct: MIDR, FIRL and NPTH moieties N-terminal to GN202 lysin (SEQ ID NO: 44) (protein)
chain: MIDRFIRLNPTHGPRRPRRPGRRAPVRTSQRGIDLIKSFEGLRLSAYQDSVGVWTIGYGTTRGVTRYMTITVEQAERMLSNDIQRFEPELDRLAKVPLNQNQWDALMSFVYNLGAANLASSTLLDLLNKGDYQGAADQFPHWVNAGGKRLDGLVKRRAAERALFLEPLS
Log10 CFU/mL of P. aeruginosa ([1]; Dog blood, 4 hours, GN370 20 μg/mL): 1.6 Log10 CFU/mL
Log10 CFU/mL of P. aeruginosa ([1]; Dog blood, 4 hours, GN370 50 μg/mL): 1.6 Log10 CFU/mL
Log10 CFU/mL of P. aeruginosa ([1]; Dog blood, 4 hours, GN370 100 μg/mL): 1.6 Log10 CFU/mL
Log10 CFU/mL of P. aeruginosa ([1]; Dog blood, 4 hours, GN370 200 μg/mL): 1.6 Log10 CFU/mL
Log10 CFU/mL of P. aeruginosa ([1]; Dog blood, 24 hours, GN370 4 μg/mL): 7.2 Log10 CFU/mL
Log10 CFU/mL of P. aeruginosa ([1]; Dog blood, 24 hours, GN370 20 μg/mL): 1.6 Log10 CFU/mL
Log10 CFU/mL of P. aeruginosa ([1]; Dog blood, 24 hours, GN370 50 μg/mL): 1.6 Log10 CFU/mL
Log10 CFU/mL of P. aeruginosa ([1]; Dog blood, 24 hours, GN370 100 μg/mL): 1.6 Log10 CFU/mL
Log10 CFU/mL of P. aeruginosa ([1]; Dog blood, 24 hours, GN370 200 μg/mL): 1.6 Log10 CFU/mL
Log10 CFU/mL of P. aeruginosa ([1]; Human blood, 2 hours, GN370 4 μg/mL): 1.6 Log10 CFU/mL
Log10 CFU/mL of P. aeruginosa ([1]; Human blood, 2 hours, GN370 20 μg/mL): 1.6 Log10 CFU/mL
Log10 CFU/mL of P. aeruginosa ([1]; Human blood, 2 hours, GN370 50 μg/mL): 1.6 Log10 CFU/mL
Log10 CFU/mL of P. aeruginosa ([1]; Human blood, 2 hours, GN370 100 μg/mL): 1.6 Log10 CFU/mL
Log10 CFU/mL of P. aeruginosa ([1]; Human blood, 2 hours, GN370 200 μg/mL): 1.6 Log10 CFU/mL
Log10 CFU/mL of P. aeruginosa ([1]; Human blood, 4 hours, GN370 4 μg/mL): 1.6 Log10 CFU/mL
Log10 CFU/mL of P. aeruginosa ([1]; Human blood, 4 hours, GN370 20 μg/mL): 1.6 Log10 CFU/mL
Log10 CFU/mL of P. aeruginosa ([1]; Human blood, 4 hours, GN370 50 μg/mL): 1.6 Log10 CFU/mL
Log10 CFU/mL of P. aeruginosa ([1]; Human blood, 4 hours, GN370 100 μg/mL): 1.6 Log10 CFU/mL
Log10 CFU/mL of P. aeruginosa ([1]; Human blood, 4 hours, GN370 200 μg/mL): 1.6 Log10 CFU/mL
Log10 CFU/mL of P. aeruginosa ([1]; Human blood, 24 hours, GN370 4 μg/mL): 4.1 Log10 CFU/mL
Log10 CFU/mL of P. aeruginosa ([1]; Human blood, 24 hours, GN370 20 μg/mL): 1.6 Log10 CFU/mL
Log10 CFU/mL of P. aeruginosa ([1]; Human blood, 24 hours, GN370 50 μg/mL): 1.6 Log10 CFU/mL
Log10 CFU/mL of P. aeruginosa ([1]; Human blood, 24 hours, GN370 100 μg/mL): 1.6 Log10 CFU/mL
Log10 CFU/mL of P. aeruginosa ([1]; Human blood, 24 hours, GN370 200 μg/mL): 1.6 Log10 CFU/mL
Log10 CFU/mL of P. aeruginosa ([1]; Rabbit blood, 2 hours, GN370 4 μg/mL): 1.6 Log10 CFU/mL
Log10 CFU/mL of P. aeruginosa ([1]; Rabbit blood, 2 hours, GN370 20 μg/mL): 1.6 Log10 CFU/mL
Log10 CFU/mL of P. aeruginosa ([1]; Rabbit blood, 2 hours, GN370 50 μg/mL): 1.6 Log10 CFU/mL
Log10 CFU/mL of P. aeruginosa ([1]; Rabbit blood, 2 hours, GN370 100 μg/mL): 1.6 Log10 CFU/mL
Log10 CFU/mL of P. aeruginosa ([1]; Rabbit blood, 2 hours, GN370 200 μg/mL): 1.6 Log10 CFU/mL
Log10 CFU/mL of P. aeruginosa ([1]; Rabbit blood, 4 hours, GN370 4 μg/mL): 3.0 Log10 CFU/mL
Log10 CFU/mL of P. aeruginosa ([1]; Rabbit blood, 4 hours, GN370 20 μg/mL): 1.6 Log10 CFU/mL
Log10 CFU/mL of P. aeruginosa ([1]; Rabbit blood, 4 hours, GN370 50 μg/mL): 1.6 Log10 CFU/mL
Log10 CFU/mL of P. aeruginosa ([1]; Rabbit blood, 4 hours, GN370 100 μg/mL): 1.6 Log10 CFU/mL
Log10 CFU/mL of P. aeruginosa ([1]; Rabbit blood, 4 hours, GN370 200 μg/mL): 1.6 Log10 CFU/mL
Log10 CFU/mL of P. aeruginosa ([1]; Rabbit blood, 24 hours, GN370 4 μg/mL): 4.9 Log10 CFU/mL
Log10 CFU/mL of P. aeruginosa ([1]; Rabbit blood, 24 hours, GN370 20 μg/mL): 1.6 Log10 CFU/mL
Log10 CFU/mL of P. aeruginosa ([1]; Rabbit blood, 24 hours, GN370 50 μg/mL): 1.6 Log10 CFU/mL
Log10 CFU/mL of P. aeruginosa ([1]; Rabbit blood, 24 hours, GN370 100 μg/mL): 1.6 Log10 CFU/mL
Log10 CFU/mL of P. aeruginosa ([1]; Rabbit blood, 24 hours, GN370 200 μg/mL): 1.6 Log10 CFU/mL
Log10 CFU/mL of P. aeruginosa ([1]; Rat blood, 2 hours, GN370 4 μg/mL): 5.9 Log10 CFU/mL
Log10 CFU/mL of P. aeruginosa ([1]; Rat blood, 2 hours, GN370 20 μg/mL): 6.1 Log10 CFU/mL
Log10 CFU/mL of P. aeruginosa ([1]; Rat blood, 2 hours, GN370 50 μg/mL): 1.6 Log10 CFU/mL
Log10 CFU/mL of P. aeruginosa ([1]; Rat blood, 2 hours, GN370 100 μg/mL): 1.6 Log10 CFU/mL
Log10 CFU/mL of P. aeruginosa ([1]; Rat blood, 2 hours, GN370 200 μg/mL): 1.6 Log10 CFU/mL
Log10 CFU/mL of P. aeruginosa ([1]; Rat blood, 4 hours, GN370 4 μg/mL): 7.0 Log10 CFU/mL
Log10 CFU/mL of P. aeruginosa ([1]; Rat blood, 4 hours, GN370 20 μg/mL): 6.2 Log10 CFU/mL
Log10 CFU/mL of P. aeruginosa ([1]; Rat blood, 4 hours, GN370 50 μg/mL): 3.7 Log10 CFU/mL
Log10 CFU/mL of P. aeruginosa ([1]; Rat blood, 4 hours, GN370 100 μg/mL): 1.6 Log10 CFU/mL
Log10 CFU/mL of P. aeruginosa ([1]; Rat blood, 4 hours, GN370 200 μg/mL): 1.6 Log10 CFU/mL
Log10 CFU/mL of P. aeruginosa ([1]; Rat blood, 24 hours, GN370 4 μg/mL): 7.9 Log10 CFU/mL
Log10 CFU/mL of P. aeruginosa ([1]; Rat blood, 24 hours, GN370 20 μg/mL): 7.8 Log10 CFU/mL
Log10 CFU/mL of P. aeruginosa ([1]; Rat blood, 24 hours, GN370 50 μg/mL): 7.6 Log10 CFU/mL
Log10 CFU/mL of P. aeruginosa ([1]; Rat blood, 24 hours, GN370 100 μg/mL): 3.6 Log10 CFU/mL
Log10 CFU/mL of P. aeruginosa ([1]; Rat blood, 24 hours, GN370 200 μg/mL): 1.6 Log10 CFU/mL
activity in dog, human, and rabbit blood (time-kill) ([1]; all times, 20-200 μg/mL, strain PA453): high activity
activity in rat blood (time-kill) ([1]; majority of the times and concentrations tested, strain PA453): poor or no activity
MBEC in CAA supplemented with […] human serum [2]: 1 µg/mL
MBEC [3]: 1 µg/mL
